Source: US20090010966A1

Experiments:
[1] = target: elongation factor 2 (EF2) (UniProt P55823)
[2] = target: elongation factor 2 (EF2) (rabbit) (UniProt P55823); assay: cell-based or functional assay

| Substance | Relative IVTT score (ratio (IC50 WT / IC50 mutant)) [1] | inhibition of transcription/translation of T7-luc plasmid (IVTT) [2] |
| --- | --- | --- |
| DT382 V28S | 3.61 | – |
| control DT(ΔR), truncated DT comprising the C and I domains only (from UniProt P00588 33-414) (enzyme) | – | 90% |
